{
  "source": "patent US10704056B2",
  "about": "“Constitutively active ABA receptor mutants” (The Regents of the University of California, priority 2011, dated 2020)",
  "molecules": {"B1": {"name": "PYL2^CA3: PYL2 mutant (H65P, V87F, F165V); expressed in plants as 35S-driven GFP fusion (protein)", "chain": "HHHHHHMSSSPAVKGLTDEEQKTLEPVIKTYHQFEPDPTTCTSLITQRIHAPASVVWPLIRRFDNPERYKPFVKRCRLISGDGDVGSVREVTFISGLPASTSTERLEFVDDDHRVLSFRVVGGEHRLKNYKSVTSVNEFLNQDSGKVYTVVLESYTVDIPEGNTEEDTKMVVDTVVKLNLQKLGVAATSAPMHDDE"}},
  "target": "T1, ABI2 (Arabidopsis thaliana, UniProt O04719)",
  "T1 construct": "Full length ABI1 and ABI2 were cloned into a modified pSUMO vector; made in house; host or cells: E. coli BL21 (DE3) pLysS",
  "T1 sequence (O04719 1-423)": "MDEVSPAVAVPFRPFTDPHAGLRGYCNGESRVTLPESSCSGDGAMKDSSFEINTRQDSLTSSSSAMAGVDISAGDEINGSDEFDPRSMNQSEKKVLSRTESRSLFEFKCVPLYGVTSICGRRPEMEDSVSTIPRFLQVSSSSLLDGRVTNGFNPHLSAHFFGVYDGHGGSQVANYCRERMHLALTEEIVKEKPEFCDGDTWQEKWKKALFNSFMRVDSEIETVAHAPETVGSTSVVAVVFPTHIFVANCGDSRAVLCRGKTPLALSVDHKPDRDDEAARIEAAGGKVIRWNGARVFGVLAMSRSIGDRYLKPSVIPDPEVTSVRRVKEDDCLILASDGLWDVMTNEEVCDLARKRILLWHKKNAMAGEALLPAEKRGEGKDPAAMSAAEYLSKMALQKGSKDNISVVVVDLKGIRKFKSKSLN",
  "test": "In vitro PP2C phosphatase (pNPP) receptor activation assay with ABI2",
  "assay_type": "biochemical",
  "conditions": "600 nM PP2C, 0-4800 nM receptor, no ABA",
  "experimental": "Full length ABI1 and ABI2 were cloned into a modified pSUMO vector (LifeSensors Inc, USA) vector yielding 6×His-SUMO fusion proteins; GST-HAB1 was expressed and purified as previously described (Park et al., 2009). Mutant receptors were cloned into pET28 yielding 6×His-fusion proteins. […]. The cultures were pre-incubated 2 hours at 30° C. and, for PP2C expression, media was supplemented with 4 mM MnCl2 one hour after inoculation. After pre-incubation, IPTG was added (1 mM) and cells were induced at 15° C. for 16 hours, after which they were collected by centrifugation, resuspended in 5 ml Buffer A (50 mM NaH2PO4, 300 mM NaCl) +10 mM imidazole, pH 8.0 and stored at −80° C. For purification, cells were thawed, sonicated on ice (60 seconds) and a cleared lysate was then applied a 1 ml-bed volume column of Ni-NTA (Qiagen, USA), washed with 20 column volumes of Buffer A+30 mM imidazole and bound protein eluted with 1 ml of Buffer A+250 mM imidazole. For receptors, the elutate was dialyzed against TBS and for PP2Cs, fusion proteins were desalted by passage over a Sephadex G50 column.\nThe purified receptors and phosphatases were then used in receptor assays where receptor activation is indicated by inhibition of phosphatase activity, as inferred from initial reaction velocities for PP2C-mediated hydrolysis of the synthetic phosphatase substrate pNPP in reactions containing 600 nM PP2C and either 0, 600, 1200, 2400 or 4800 nM receptor. The receptor assay buffer consisted of 33 mM Tris-OAc, pH 7.9, 66 mM KOAc, 0.1% BSA, 25 mM Mn(OAc)2, 0.1%13-ME and 50 mM pNPP. Immediately after mixing proteins and substrates, reactions were monitored for hydrolysis of pNPP at A405 at ˜2 minutes intervals using a Wallac plate reader. Reaction progressions were plotted, initial velocities calculated and converted to specific activities by comparison to a standard curve for 4-nitrophenol made in the same buffer system. PP2C activity values shown in figures are expressed as %-control phosphatase activity levels, as measured under identical reaction conditions in the absence of receptor protein. The average specific activity level of GST-HAB1, 6×His-SUMO-ABI1 and 6×His-SUMO-ABI2 utilized in our experiments was 4500 (GST-PP2C) or 2500 (SUMO-PP2C) μmol/min/mg, when assayed using the phosphatase substrate pNPP in the absence of PYR1 or other receptors.",
  "data": [
    {"molecule": "B1", "values": [
      {"measurement": "constitutive receptor activity on ABI2 in the absence of ABA", "value": "active towards multiple PP2Cs"}
    ]}
  ]
}
